Experiment [1] concerns the target deglycosylated 92TH023 V1/V2 tag scaffold (HIV-1 92TH023 (subtype A/E)). Nature of the experiment: static cell adhesion assay.
Experiment [2] has as its target synthetic cyclic 42 amino acid V2 peptide of 92TH023 gp120 (HIV-1 92TH023 (subtype A/E)). In words: static cell adhesion assay; RPMI8866 cells on immobilised MAdCAM or cV2 92TH023 in buffer with a high concentration of MgCl2.
Experiment [3] has as its target recombinant A244 gp120 (subtype A/E, GSID) (HIV-1 A244 (subtype A/E)). In words: SPR. On the technique in general: SPR reads the build-up and loss of mass on a sensor chip optically.
Experiment [4] addresses recombinant SIVmac766 gp120 (SIVmac766). In words: SPR.
For experiment [5], the target named is synthetic cyclic 42 amino acid V2 peptide of 92TH023 gp120 (HIV-1 92TH023 (subtype A/E)). Nature of the experiment: SPR.
Experiment [6] has as its target T1, recombinant soluble α4β7 heterodimer (human, UniProt P13612 35-977; P26010 20-723, disulfide bond joining the acid-base clasp | disulfide bond joining the acid-base clasp).
T1 construct: also called integrin α4β7; not shown: acid coiled-coil clasp peptide, C-terminal, kept; base coiled-coil clasp peptide, C-terminal, kept
Nature of the experiment: SPR. The note with it: both partners purified.

In experiment [1], “integrin α4β7 expressed on the surface of RPMI8866 cells (from UniProt P13612 34-1032; P26010 20-798) (receptor)” registered a fold adhesion against deglycosylated 92TH023 V1/V2 1FD6 of 5 fold. Also, in experiment [2], the fold reduction of adhesion in MgCl2 against MnCl2 amounted to 2.5 fold.
The term Kd denotes the constant that tells how readily two partners part at equilibrium. As to “recombinant soluble α4β7 heterodimer (from UniProt P13612 35-977; P26010 20-723) (complex)”, the Kd in experiment [3] was 7.14 nM; in experiment [4], 104 nM; in experiment [5], 1.15 nM.
For “soluble α4β1 (from UniProt P13612 35-977; P05556 21-728) (complex)”, the Kd in experiment [5] was found to be 9710 nM.

B1: MAdCAM-Ig fusion protein (Fc fusion, human, UniProt Q13477 19-317, looked up)
chain: QSLQVKPLQVEPPEPVVAVALGASRQLTCRLACADRGASVQWRGLDTSLGAVQSDTGRSVLTVRNASLSAAGTRVCVGSCGGRTFQHTVQLLVYAFPDQLTVSPAALVPGDPEVACTAHKVTPVDPNALSFSLLVGGQELEGAQALGPEVQEEEEEPQGDEDVLFRVTERWRLPPLGTPVPPALYCQATMRLPGLELSHRQAIPVLHSPTSPEPPDTTSPESPDTTSPESPDTTSQEPPDTTSPEPPDKTSPEPAPQQGSTHTPRSPGSTRTRRPEISQAGPTQGEVIPTGSSKPAGDQ
notes: also called Hu-MAdCAM-Ig; MAdCAM-1
With B1, in experiment [6], the Kd turned out to be 0.597 nM.

Source of the values: PMC6130882 (PLoS Pathogens, 2018).
